The results in this text go back to patent publication US20210346401.

Targets include VISA-6YF (UniProt Q7Z434); IRF3-Y/F (UniProt Q14653); MITA-Y/F (UniProt Q86WV6); RIG-I (endogenous, MLFs) (UniProt Q6Q899); TBK1 (endogenous, MLFs) (UniProt Q9WUN2); IRF3 (endogenous, MLFs) (UniProt P70671).
In data set [1] the target is HA-tagged cGAS (overexpressed in HEK293 cells) (UniProt Q8N884).
For data set [2], the target named is HA-tagged MITA (overexpressed in HEK293 cells) (UniProt Q86WV6).
The target in data set [3] is HA-tagged VISA (overexpressed in HEK293 cells) (UniProt Q7Z434).
HA-tagged VISA (overexpressed in HEK293 cells), sequence (Q7Z434 whole entry): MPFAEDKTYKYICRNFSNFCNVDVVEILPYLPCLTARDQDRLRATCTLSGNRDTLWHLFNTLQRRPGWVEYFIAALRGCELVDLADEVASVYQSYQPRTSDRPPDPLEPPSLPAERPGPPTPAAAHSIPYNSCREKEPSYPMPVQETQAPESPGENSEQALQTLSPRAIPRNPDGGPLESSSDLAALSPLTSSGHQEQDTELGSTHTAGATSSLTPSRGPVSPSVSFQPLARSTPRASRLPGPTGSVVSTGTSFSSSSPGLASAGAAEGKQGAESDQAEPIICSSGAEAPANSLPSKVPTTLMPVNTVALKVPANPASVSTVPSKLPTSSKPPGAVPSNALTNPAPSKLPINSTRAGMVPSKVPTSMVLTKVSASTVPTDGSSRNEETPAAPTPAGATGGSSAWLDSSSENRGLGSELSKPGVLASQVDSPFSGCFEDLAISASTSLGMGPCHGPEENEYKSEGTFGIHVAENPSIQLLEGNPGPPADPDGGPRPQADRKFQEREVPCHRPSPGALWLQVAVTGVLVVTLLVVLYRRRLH
Data set [4] deals with HA-tagged RIG-I (overexpressed in HEK293 cells) (UniProt O95786).
HA-tagged RIG-I (overexpressed in HEK293 cells), sequence (O95786 whole entry): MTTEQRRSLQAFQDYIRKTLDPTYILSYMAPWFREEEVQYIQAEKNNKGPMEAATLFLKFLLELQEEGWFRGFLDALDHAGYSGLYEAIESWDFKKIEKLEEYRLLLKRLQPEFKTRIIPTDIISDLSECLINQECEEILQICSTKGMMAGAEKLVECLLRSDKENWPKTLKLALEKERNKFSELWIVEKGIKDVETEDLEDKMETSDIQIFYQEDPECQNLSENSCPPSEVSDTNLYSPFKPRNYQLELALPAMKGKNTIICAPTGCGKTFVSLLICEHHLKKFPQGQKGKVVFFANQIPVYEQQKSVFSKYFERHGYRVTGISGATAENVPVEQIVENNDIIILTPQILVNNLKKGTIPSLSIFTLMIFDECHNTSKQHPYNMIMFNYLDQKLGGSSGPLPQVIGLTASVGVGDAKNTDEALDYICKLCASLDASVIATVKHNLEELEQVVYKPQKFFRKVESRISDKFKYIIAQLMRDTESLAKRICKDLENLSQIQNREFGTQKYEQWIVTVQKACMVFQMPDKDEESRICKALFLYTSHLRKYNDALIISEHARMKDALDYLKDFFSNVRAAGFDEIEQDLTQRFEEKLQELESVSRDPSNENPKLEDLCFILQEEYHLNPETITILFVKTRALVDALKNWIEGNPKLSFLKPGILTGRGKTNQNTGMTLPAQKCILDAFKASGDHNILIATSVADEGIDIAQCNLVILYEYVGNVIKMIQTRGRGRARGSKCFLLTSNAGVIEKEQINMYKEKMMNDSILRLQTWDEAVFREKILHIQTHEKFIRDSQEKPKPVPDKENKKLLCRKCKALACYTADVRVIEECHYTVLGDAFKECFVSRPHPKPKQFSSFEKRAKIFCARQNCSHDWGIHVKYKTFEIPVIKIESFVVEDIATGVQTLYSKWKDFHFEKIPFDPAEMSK
Data set [5] has as its target HA-tagged IRF3 (overexpressed in HEK293 cells) (UniProt Q14653).
In data set [6] the target is HA-tagged TBK1 (overexpressed in HEK293 cells) (UniProt Q9UHD2).
HA-tagged TBK1 (overexpressed in HEK293 cells), sequence (Q9UHD2 whole entry): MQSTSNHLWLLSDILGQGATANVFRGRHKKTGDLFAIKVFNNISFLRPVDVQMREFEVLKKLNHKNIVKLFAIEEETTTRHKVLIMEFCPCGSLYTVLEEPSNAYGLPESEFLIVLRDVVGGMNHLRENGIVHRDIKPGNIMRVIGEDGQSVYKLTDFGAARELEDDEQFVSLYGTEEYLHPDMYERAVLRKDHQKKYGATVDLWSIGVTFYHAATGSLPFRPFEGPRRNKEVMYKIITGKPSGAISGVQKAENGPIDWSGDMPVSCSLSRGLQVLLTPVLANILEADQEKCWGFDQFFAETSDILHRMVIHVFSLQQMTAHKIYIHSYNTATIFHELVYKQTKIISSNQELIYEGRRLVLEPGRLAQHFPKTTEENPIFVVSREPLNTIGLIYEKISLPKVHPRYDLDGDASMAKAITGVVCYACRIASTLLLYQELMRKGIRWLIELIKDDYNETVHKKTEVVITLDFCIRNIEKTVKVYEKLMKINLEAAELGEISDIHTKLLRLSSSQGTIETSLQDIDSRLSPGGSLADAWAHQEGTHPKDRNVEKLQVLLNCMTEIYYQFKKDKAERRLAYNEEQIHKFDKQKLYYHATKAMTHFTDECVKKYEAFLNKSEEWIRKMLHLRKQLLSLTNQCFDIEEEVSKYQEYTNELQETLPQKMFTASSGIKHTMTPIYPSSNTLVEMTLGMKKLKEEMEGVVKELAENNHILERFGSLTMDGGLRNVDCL
For data set [7], the target named is VISA/MAVS (endogenous, MLFs) (UniProt Q8VCF0).
The target in data set [8] is MITA/STING (endogenous, MLFs) (UniProt Q3TBT3).
MITA/STING (endogenous, MLFs), sequence (Q3TBT3 whole entry): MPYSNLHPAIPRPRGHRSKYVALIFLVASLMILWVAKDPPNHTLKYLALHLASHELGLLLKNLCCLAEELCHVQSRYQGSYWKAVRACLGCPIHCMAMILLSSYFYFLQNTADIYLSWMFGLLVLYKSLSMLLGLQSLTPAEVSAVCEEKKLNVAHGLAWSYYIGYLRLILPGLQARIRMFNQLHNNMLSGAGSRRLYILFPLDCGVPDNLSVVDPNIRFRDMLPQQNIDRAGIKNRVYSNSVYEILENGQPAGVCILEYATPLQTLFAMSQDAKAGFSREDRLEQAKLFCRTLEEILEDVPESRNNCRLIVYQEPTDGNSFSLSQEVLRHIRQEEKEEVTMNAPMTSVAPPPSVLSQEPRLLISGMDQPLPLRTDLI

VISA-6YF, sequence (Q7Z434 other isoform, or with tags, fused parts or gaps): as the sequence (Q7Z434 whole entry) above, with Y9F, Y92F, Y95F, Y130F, Y140F, Y460F counted along it
HA-tagged IRF3 (overexpressed in HEK293 cells), sequence (Q14653 whole entry): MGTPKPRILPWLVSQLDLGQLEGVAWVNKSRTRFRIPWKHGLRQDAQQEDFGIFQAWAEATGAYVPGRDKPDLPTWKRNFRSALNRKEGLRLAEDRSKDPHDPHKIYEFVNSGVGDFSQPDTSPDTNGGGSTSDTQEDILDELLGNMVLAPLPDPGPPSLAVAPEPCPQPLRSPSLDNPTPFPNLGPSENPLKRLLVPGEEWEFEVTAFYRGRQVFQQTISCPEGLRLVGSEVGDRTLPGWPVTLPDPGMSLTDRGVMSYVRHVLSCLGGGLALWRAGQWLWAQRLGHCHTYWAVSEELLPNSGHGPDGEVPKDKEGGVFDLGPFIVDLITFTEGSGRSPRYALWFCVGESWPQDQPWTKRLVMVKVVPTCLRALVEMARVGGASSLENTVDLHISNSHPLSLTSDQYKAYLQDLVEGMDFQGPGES
TBK1 (endogenous, MLFs), sequence (Q9WUN2 whole entry): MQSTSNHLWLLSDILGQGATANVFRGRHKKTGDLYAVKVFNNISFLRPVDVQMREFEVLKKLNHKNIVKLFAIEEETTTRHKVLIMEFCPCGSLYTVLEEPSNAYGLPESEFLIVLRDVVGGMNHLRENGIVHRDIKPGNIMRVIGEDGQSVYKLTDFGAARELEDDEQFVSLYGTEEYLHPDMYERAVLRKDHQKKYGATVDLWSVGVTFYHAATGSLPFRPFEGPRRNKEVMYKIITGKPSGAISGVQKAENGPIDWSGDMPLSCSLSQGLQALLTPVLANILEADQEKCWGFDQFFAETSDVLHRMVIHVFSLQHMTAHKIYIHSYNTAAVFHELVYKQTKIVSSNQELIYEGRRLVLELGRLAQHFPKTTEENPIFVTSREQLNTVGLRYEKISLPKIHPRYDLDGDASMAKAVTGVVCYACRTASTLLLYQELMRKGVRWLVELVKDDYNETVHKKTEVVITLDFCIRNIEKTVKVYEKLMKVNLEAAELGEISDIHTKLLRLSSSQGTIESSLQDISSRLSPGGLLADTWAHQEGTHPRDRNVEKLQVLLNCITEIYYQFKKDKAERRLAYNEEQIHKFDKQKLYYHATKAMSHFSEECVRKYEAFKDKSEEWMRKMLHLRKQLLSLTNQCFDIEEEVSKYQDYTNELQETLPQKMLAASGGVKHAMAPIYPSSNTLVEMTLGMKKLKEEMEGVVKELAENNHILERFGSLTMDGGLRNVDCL
IRF3-Y/F, sequence (Q14653 whole entry Y107F): as the sequence (Q14653 whole entry) above, with Y107F counted along it
RIG-I (endogenous, MLFs), sequence (Q6Q899 whole entry): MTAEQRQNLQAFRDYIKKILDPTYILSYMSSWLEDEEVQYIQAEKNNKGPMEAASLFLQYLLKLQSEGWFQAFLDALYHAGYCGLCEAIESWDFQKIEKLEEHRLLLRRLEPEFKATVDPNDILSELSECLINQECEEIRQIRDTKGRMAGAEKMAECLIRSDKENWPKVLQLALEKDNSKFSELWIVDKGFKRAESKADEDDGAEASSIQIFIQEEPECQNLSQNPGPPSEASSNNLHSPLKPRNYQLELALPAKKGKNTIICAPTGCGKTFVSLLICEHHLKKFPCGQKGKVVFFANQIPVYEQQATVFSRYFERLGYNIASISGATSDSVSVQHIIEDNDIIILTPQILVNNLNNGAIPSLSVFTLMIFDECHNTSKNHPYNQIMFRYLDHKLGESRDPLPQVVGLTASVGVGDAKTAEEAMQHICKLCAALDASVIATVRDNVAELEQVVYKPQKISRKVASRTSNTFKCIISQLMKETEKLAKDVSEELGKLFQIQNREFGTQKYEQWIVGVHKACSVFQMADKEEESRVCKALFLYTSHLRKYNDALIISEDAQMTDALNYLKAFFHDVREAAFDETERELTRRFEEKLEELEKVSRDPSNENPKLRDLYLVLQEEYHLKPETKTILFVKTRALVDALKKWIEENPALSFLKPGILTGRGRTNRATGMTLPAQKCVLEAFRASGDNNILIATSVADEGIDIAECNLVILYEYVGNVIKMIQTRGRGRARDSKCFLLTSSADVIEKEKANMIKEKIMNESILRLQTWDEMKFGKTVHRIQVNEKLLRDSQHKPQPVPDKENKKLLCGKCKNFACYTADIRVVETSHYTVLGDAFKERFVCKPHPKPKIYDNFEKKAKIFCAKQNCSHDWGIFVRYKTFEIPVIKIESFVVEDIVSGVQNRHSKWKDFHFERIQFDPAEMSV

Regarding “Flag-tagged SRC (overexpressed in HEK293 cells)”, the “tyrosine phosphorylation (IP with HA antibody, immunoblot)” value in data set [1] was “overexpression of SRC caused tyrosine phosphorylation of RIG-I, VISA, MITA, TBK1 and IRF3, but not cGAS”; in data set [2] it was “overexpression of SRC caused tyrosine phosphorylation of RIG-I, VISA, MITA, TBK1 and IRF3, but not cGAS”; in data set [3], “overexpression of SRC caused tyrosine phosphorylation of RIG-I, VISA, MITA, TBK1 and IRF3, but not cGAS”; in data set [4], “overexpression of SRC caused tyrosine phosphorylation of RIG-I, VISA, MITA, TBK1 and IRF3, but not cGAS”; in data set [5], “overexpression of SRC caused tyrosine phosphorylation of RIG-I, VISA, MITA, TBK1 and IRF3, but not cGAS”; in data set [6], “overexpression of SRC caused tyrosine phosphorylation of RIG-I, VISA, MITA, TBK1 and IRF3, but not cGAS”. Moreover, the “SRC-mediated tyrosine phosphorylation (IP, immunoblot)” value is “Simultaneous mutation of Y9, Y92, Y95, Y130, Y140 and Y460 of VISA to F (VISA-6YF) impaired SRC-mediated tyrosine phosphorylation” with VISA-6YF; “Mutation of Y107 of IRF3 to F (IRF3-Y/F) impaired SRC-mediated tyrosine phosphorylation of IRF3” with IRF3-Y/F; “Mutation of Y245 of MITA to F (MITA-Y/F) abolished SRC-mediated tyrosine phosphorylation of MITA” in the data set with MITA-Y/F.
In the case of SRC (endogenous, MLFs), the “virus-induced tyrosine phosphorylation in SRC-deficient MLFs (IP, immunoblot)” value was “SRC-deficiency impaired SeV- or HSV-1-induced tyrosine phosphorylation of endogenous RIG-I, VISA/MAVS, TBK1, IRF3 and MITA/STING” in [7]; “SRC-deficiency impaired SeV- or HSV-1-induced tyrosine phosphorylation of endogenous RIG-I, VISA/MAVS, TBK1, IRF3 and MITA/STING” with RIG-I (endogenous, MLFs); “SRC-deficiency impaired SeV- or HSV-1-induced tyrosine phosphorylation of endogenous RIG-I, VISA/MAVS, TBK1, IRF3 and MITA/STING” in the data set with TBK1 (endogenous, MLFs); “SRC-deficiency impaired SeV- or HSV-1-induced tyrosine phosphorylation of endogenous RIG-I, VISA/MAVS, TBK1, IRF3 and MITA/STING” in data set [8]; “SRC-deficiency impaired SeV- or HSV-1-induced tyrosine phosphorylation of endogenous RIG-I, VISA/MAVS, TBK1, IRF3 and MITA/STING” with IRF3 (endogenous, MLFs).
